Data published in patent publication US10280218B2, “Antibodies binding to BMP4, and uses thereof” (ACADEMISCH MEDISCH CENTRUM, priority 2014, dated 2019).

T1: BMP4 (Homo sapiens, UniProt P12644)
T1 sequence (P12644 293-408): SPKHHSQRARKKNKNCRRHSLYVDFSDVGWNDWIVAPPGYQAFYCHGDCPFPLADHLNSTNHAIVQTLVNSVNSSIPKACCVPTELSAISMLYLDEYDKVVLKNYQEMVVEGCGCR

T2: BMP4 (human)
T2 chain: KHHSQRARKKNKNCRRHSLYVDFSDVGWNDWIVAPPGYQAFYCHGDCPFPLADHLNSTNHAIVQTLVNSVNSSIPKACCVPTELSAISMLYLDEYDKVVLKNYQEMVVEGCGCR

B1: C8E7: E7 linked to C8, hetero-dimer VHH bihead (protein)
chain: EVQLVESGGGLVQAGGSLRLSCAASGRTFRINDMGWYRQAPGKSRDMVARITSGGNTNYADSVKGRFTISRDNAKNTVYLQMNSLKPEDTAVYYCNADGLRFDSTRYRPFDSWGQGTQVTVSSGGGGSGGGGSEVQLVESGGGLVQAGGSLRLSCAASGSIRGFVAMAWYRQAPGKQREWVATVTNGGTLYGDSVKGRFTGSRDNAKNTVYLQMNSLKPEDTAVYYCALRQIGASGYDYWGQGTQVTVSS
B2: hNoggin (protein)
chain: QHYLHIRPAPSDNLPLVDLIEHPDPIFDPKEKDLNETLLRSLLGGHYDPGFMATSPPEDRPGGGGGAAGGAEDLAELDQLLRQRPSGAMPSEIKGLEFSEGLAQGKKQRLSKKLRRKLQMWLWSQTFCPVLYAWNDLGSRFWPRYVKVGSCFSKRSCSVPEGMVCKPSKSVHLTVLRWRCQRRGGQRCGWIPIQYPIISECKCSC

How the values were obtained:
BMP4 [1] = biological target: T1, BMP4; experiment: BMP specificity of VHH antibodies (summary of binding and inhibition of BMP function); design: purchased R&D systems; key: ●▪: Binding and inhibition of BMP function.; ●□: Binding, but no inhibition.; ○: No binding; conditions: summary of SPR and functional experiments
Description: Thus, we have generated several VH Hs that can be classified into four groups (Table 3): BMP4, BMP2/4, BMP2/4/5 and BMP2/4/5/6-specific.

BMP4 [2] = biological target: T2, BMP4; experiment: SPR
[3] = tested on: patient-derived SMAD4 deficient tumors; conditions: FIG. 6 of Lombardo et al.; cited from earlier work

Row | Molecule | BMP4: binding and inhibition of BMP function (BMP4 [1]) | Kd (BMP4 [2]) [nM] | growth of SMAD4 deficient tumors after treatment [3]
1 | B1 | ●▪ |  | 
2 | B2 |  | 0.091 | generated tumors that grew faster instead of slower
